{"source": "paper PMC7583038", "key": {"[1]": {"target": "wild-type eel follicle-stimulating hormone receptor (eel)"}, "[2]": {"target": "eelFSHR-R546C (eel)"}, "[3]": {"target": "wild-type eel follicle-stimulating hormone receptor (eel)", "remark": "listed apart in the source"}, "[4]": {"target": "eelFSHR-D540N (eel)"}, "[5]": {"target": "eelFSHR-D540G (eel)"}}, "data": [{"substance": "recombinant eel follicle-stimulating hormone (ligand)", "values": [{"measurement": "EC50 of the rec-eelFSH-stimulated cAMP response (HTRF) in transfected CHO-K1 cells, 30 min (series with the inactivating mutants)", "setting": "[1]", "result": 0.314, "unit": "µg/mL"}, {"measurement": "EC50 of the rec-eelFSH-stimulated cAMP response (HTRF) in transfected CHO-K1 cells, 30 min", "setting": "[2]", "result": 0.385, "unit": "µg/mL"}, {"measurement": "EC50 of the rec-eelFSH-stimulated cAMP response (HTRF) in transfected CHO-K1 cells, 30 min", "setting": "[3]", "result": 0.524, "unit": "µg/mL"}, {"measurement": "EC50 of the rec-eelFSH-stimulated cAMP response (HTRF) in transfected CHO-K1 cells, 30 min", "setting": "[4]", "result": 0.544, "unit": "µg/mL"}, {"measurement": "EC50 of the rec-eelFSH-stimulated cAMP response (HTRF) in transfected CHO-K1 cells, 30 min", "setting": "[5]", "result": 0.359, "unit": "µg/mL"}]}]}
